7 molecules from PMC3430690 (PLoS ONE, 2012) can be followed below.

One series concerns the target T1, 3xFlag-LRRK1 (Homo sapiens, UniProt Q38SD2).
T1 construct: homodimer
The series is described as follows: pulldown from cell lysate on ATP-agarose, competed by free ATP. The series is classed as binding. The conditions noted are these: ATP-depleted lysate, pH 7.4, 5 mM MgCl2, 4°C; competed by 1 mM ATP, not GTP; kinase domain site.

A further series deals with T2, 3xFlag-LRRK2 (Homo sapiens, UniProt Q5S007).
T2 construct: homodimer
The series is described as above. The series is classed as binding. The conditions noted are these: ATP-depleted lysate, pH 7.4, 5 mM MgCl2, 4°C; competed by 1 mM ATP, not GTP; kinase domain site.

Series [1] has as its target 3xFlag-LRRK2 G2019S pathogenic mutant, full-length (human) (UniProt Q5S007). Nature of the series: immunogold labelling + negative-stain transmission electron microscopy; purified 3xFlag proteins diluted to 5 ng/ul in 20 mM Tris-HCl pH 7.5, 150 mM NaCl, 0.02% Tween 20 or Triton X-100; uranyl acetate stain; anti-Flag M2 primary and 5 nm gold secondary antibody; distances between gold particles and particle diameters measured. The conditions noted are these: remark: other sources report otherwise.

Series [2] deals with 3xFlag-LRRK1 K650A GTP deficient binding mutant, full-length (human) (UniProt Q38SD2). The description is as above.
Series [3] addresses 3xFlag-LRRK2 T1348N GTP deficient binding mutant, full-length (human) (UniProt Q5S007). The description is as above.
Series [4] has as its target 3xFlag-LRRK1 wild-type (leucine-rich repeat kinase 1), full-length (human) (UniProt Q38SD2). The series is described as above.
The target of series [5] is 3xFlag-LRRK2 K1906M kinase dead mutant, full-length (human) (UniProt Q5S007). Described as above.
Series [6] deals with the molecule itself. The series is described as above.

T1 sequence (Q38SD2 28-2015): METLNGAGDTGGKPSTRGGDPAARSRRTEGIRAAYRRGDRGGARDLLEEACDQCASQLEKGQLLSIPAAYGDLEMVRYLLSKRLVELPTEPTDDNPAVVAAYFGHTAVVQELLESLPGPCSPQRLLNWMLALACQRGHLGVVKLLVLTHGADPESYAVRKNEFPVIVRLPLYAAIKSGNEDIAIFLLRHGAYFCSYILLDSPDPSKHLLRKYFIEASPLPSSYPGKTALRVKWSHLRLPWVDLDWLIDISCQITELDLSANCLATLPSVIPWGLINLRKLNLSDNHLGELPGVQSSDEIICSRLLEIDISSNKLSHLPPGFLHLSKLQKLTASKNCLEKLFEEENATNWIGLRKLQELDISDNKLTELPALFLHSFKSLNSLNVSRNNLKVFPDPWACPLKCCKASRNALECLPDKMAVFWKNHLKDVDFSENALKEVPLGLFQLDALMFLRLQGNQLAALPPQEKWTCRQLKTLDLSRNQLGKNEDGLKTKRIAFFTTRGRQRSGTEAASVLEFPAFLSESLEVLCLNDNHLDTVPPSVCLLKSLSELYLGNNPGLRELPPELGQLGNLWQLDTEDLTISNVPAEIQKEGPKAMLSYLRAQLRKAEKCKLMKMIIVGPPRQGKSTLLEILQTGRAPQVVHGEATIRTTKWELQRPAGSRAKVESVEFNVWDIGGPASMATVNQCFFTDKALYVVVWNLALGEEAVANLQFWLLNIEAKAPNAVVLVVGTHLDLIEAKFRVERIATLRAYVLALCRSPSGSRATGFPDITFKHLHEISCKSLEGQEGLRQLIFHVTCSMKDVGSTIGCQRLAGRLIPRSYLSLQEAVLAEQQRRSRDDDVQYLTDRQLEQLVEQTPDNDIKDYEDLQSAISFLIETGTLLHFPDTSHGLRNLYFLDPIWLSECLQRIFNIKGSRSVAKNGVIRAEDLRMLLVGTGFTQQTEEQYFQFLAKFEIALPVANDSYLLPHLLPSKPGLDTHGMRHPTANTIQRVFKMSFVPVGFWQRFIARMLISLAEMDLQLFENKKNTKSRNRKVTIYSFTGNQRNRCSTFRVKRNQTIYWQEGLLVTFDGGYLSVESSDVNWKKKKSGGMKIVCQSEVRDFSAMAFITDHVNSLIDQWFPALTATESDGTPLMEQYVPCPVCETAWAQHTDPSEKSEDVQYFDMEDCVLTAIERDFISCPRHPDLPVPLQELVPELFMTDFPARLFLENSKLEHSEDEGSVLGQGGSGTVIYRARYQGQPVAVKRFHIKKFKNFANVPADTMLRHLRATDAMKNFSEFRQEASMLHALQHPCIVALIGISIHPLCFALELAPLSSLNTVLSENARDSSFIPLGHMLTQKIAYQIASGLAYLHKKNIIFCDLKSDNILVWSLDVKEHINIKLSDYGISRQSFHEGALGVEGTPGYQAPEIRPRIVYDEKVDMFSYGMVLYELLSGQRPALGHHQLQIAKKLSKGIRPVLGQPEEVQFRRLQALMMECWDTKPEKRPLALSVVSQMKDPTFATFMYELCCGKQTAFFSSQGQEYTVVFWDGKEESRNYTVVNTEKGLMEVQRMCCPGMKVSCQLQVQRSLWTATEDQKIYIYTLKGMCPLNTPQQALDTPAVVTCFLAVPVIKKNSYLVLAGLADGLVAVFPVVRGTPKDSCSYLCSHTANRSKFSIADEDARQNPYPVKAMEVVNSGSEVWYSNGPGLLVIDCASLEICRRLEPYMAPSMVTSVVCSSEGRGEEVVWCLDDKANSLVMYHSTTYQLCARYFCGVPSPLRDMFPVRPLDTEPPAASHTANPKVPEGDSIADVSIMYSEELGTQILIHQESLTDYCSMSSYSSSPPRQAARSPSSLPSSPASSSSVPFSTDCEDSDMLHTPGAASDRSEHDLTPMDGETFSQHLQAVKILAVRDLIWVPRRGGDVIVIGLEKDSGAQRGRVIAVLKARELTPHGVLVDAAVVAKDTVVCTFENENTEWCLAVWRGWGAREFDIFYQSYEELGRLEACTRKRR
T2 sequence (Q5S007 whole entry): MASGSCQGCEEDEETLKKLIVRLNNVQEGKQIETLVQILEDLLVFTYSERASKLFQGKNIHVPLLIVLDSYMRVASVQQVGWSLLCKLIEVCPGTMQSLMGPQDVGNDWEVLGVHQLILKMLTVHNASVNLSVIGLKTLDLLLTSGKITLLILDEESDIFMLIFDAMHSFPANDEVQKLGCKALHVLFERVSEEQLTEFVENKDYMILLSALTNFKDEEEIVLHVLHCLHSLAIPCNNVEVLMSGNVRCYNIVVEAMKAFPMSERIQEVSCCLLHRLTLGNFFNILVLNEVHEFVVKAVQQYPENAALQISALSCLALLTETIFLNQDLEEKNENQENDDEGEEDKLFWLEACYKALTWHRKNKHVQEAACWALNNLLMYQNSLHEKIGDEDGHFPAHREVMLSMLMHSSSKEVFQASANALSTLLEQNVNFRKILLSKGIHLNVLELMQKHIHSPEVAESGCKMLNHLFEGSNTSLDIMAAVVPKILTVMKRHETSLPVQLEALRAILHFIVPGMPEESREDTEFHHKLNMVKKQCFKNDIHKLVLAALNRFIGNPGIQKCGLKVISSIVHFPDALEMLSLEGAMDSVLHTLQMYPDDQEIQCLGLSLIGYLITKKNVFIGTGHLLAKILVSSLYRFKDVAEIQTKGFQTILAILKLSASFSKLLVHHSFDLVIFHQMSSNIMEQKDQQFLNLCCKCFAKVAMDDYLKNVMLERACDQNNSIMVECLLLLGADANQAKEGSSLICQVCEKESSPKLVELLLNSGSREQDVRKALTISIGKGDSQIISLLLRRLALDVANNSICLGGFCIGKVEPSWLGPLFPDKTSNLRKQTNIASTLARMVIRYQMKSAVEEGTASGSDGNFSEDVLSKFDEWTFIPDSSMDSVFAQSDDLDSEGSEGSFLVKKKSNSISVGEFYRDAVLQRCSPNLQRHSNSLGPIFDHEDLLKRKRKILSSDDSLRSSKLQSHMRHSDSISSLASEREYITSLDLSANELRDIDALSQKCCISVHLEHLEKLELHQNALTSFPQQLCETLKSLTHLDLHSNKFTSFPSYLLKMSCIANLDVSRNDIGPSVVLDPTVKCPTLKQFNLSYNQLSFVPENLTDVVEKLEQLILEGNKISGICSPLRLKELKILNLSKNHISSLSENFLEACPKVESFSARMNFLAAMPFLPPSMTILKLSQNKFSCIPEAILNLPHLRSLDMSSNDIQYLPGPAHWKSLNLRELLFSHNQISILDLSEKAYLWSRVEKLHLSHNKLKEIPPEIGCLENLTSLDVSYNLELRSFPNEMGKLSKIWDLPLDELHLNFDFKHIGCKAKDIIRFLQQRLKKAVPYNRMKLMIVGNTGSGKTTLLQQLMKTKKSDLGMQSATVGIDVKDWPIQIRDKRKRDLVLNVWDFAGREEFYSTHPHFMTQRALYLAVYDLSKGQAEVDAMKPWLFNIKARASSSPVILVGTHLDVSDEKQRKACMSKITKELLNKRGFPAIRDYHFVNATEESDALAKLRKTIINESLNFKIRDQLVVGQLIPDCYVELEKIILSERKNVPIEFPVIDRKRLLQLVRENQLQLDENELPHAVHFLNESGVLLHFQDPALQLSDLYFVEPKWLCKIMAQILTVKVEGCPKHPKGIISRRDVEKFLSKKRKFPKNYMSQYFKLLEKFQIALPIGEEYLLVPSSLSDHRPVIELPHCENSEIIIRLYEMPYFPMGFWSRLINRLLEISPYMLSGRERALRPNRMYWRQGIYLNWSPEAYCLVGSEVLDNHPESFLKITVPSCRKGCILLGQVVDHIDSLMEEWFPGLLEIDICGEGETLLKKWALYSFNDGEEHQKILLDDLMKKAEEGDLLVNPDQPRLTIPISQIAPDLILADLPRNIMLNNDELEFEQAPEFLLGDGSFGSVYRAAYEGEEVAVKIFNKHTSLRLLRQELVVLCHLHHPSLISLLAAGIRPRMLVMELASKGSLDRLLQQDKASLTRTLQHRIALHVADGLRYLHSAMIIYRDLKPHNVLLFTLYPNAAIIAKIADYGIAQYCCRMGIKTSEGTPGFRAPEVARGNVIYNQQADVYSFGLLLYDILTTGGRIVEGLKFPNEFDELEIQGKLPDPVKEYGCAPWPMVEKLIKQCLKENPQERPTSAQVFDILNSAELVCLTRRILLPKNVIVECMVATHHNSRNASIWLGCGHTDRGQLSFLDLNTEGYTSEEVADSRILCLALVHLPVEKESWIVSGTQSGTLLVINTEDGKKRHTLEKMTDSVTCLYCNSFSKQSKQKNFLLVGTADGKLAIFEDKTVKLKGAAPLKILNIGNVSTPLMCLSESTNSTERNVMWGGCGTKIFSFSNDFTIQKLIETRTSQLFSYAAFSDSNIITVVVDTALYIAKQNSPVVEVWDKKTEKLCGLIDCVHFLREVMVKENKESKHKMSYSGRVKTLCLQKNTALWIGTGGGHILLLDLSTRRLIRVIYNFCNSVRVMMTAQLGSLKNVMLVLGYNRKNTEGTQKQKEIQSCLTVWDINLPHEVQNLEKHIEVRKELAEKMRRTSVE

Regarding `Nc1ncnc2c1ncn2[C@@H]1O[C@H](COP(=O)(O)OP(=O)(O)OP(=O)(O)O)[C@@H](O)[C@H]1O` [ATP], the “pulldown from cell lysate on ATP-agarose, competed by free ATP” value at 3xFlag-LRRK1 and at 3xFlag-LRRK2 was “we confirm binding of both proteins to ATP using different ATP agarose beads” each time.

The term stoichiometry N denotes a count of units in the complex or per binding partner. Take “3xFlag-LRRK2 G2019S pathogenic mutant, full-length, Q5S007 1-2527”: the stoichiometry N in series [1] was 2.

For “3xFlag-LRRK1 K650A GTP deficient binding mutant, full-length (from UniProt Q38SD2 1-2015) (enzyme)”, in series [2], the stoichiometry N turned out to be 2. Turning to “3xFlag-LRRK2 T1348N GTP deficient binding mutant, full-length, Q5S007 1-2527”, in series [3], the stoichiometry N worked out at 2. For the molecule “3xFlag-LRRK1 wild-type (leucine-rich repeat kinase 1), full-length (from UniProt Q38SD2 1-2015) (enzyme)”, the stoichiometry N in series [4] was 2. In the case of “3xFlag-LRRK2 K1906M kinase dead mutant, full-length, Q5S007 1-2527”, in series [5], the stoichiometry N was found to be 2.

B1: 3xFlag-LRRK1 kinase dead mutant (K1269M; printed K1269W in the dimer experiment), full-length (enzyme)
chain: METLNGAGDTGGKPSTRGGDPAARSRRTEGIRAAYRRGDRGGARDLLEEACDQCASQLEKGQLLSIPAAYGDLEMVRYLLSKRLVELPTEPTDDNPAVVAAYFGHTAVVQELLESLPGPCSPQRLLNWMLALACQRGHLGVVKLLVLTHGADPESYAVRKNEFPVIVRLPLYAAIKSGNEDIAIFLLRHGAYFCSYILLDSPDPSKHLLRKYFIEASPLPSSYPGKTALRVKWSHLRLPWVDLDWLIDISCQITELDLSANCLATLPSVIPWGLINLRKLNLSDNHLGELPGVQSSDEIICSRLLEIDISSNKLSHLPPGFLHLSKLQKLTASKNCLEKLFEEENATNWIGLRKLQELDISDNKLTELPALFLHSFKSLNSLNVSRNNLKVFPDPWACPLKCCKASRNALECLPDKMAVFWKNHLKDVDFSENALKEVPLGLFQLDALMFLRLQGNQLAALPPQEKWTCRQLKTLDLSRNQLGKNEDGLKTKRIAFFTTRGRQRSGTEAASVLEFPAFLSESLEVLCLNDNHLDTVPPSVCLLKSLSELYLGNNPGLRELPPELGQLGNLWQLDTEDLTISNVPAEIQKEGPKAMLSYLRAQLRKAEKCKLMKMIIVGPPRQGKSTLLEILQTGRAPQVVHGEATIRTTKWELQRPAGSRAKVESVEFNVWDIGGPASMATVNQCFFTDKALYVVVWNLALGEEAVANLQFWLLNIEAKAPNAVVLVVGTHLDLIEAKFRVERIATLRAYVLALCRSPSGSRATGFPDITFKHLHEISCKSLEGQEGLRQLIFHVTCSMKDVGSTIGCQRLAGRLIPRSYLSLQEAVLAEQQRRSRDDDVQYLTDRQLEQLVEQTPDNDIKDYEDLQSAISFLIETGTLLHFPDTSHGLRNLYFLDPIWLSECLQRIFNIKGSRSVAKNGVIRAEDLRMLLVGTGFTQQTEEQYFQFLAKFEIALPVANDSYLLPHLLPSKPGLDTHGMRHPTANTIQRVFKMSFVPVGFWQRFIARMLISLAEMDLQLFENKKNTKSRNRKVTIYSFTGNQRNRCSTFRVKRNQTIYWQEGLLVTFDGGYLSVESSDVNWKKKKSGGMKIVCQSEVRDFSAMAFITDHVNSLIDQWFPALTATESDGTPLMEQYVPCPVCETAWAQHTDPSEKSEDVQYFDMEDCVLTAIERDFISCPRHPDLPVPLQELVPELFMTDFPARLFLENSKLEHSEDEGSVLGQGGSGTVIYRARYQGQPVAVWRFHIKKFKNFANVPADTMLRHLRATDAMKNFSEFRQEASMLHALQHPCIVALIGISIHPLCFALELAPLSSLNTVLSENARDSSFIPLGHMLTQKIAYQIASGLAYLHKKNIIFCDLKSDNILVWSLDVKEHINIKLSDYGISRQSFHEGALGVEGTPGYQAPEIRPRIVYDEKVDMFSYGMVLYELLSGQRPALGHHQLQIAKKLSKGIRPVLGQPEEVQFRRLQALMMECWDTKPEKRPLALSVVSQMKDPTFATFMYELCCGKQTAFFSSQGQEYTVVFWDGKEESRNYTVVNTEKGLMEVQRMCCPGMKVSCQLQVQRSLWTATEDQKIYIYTLKGMCPLNTPQQALDTPAVVTCFLAVPVIKKNSYLVLAGLADGLVAVFPVVRGTPKDSCSYLCSHTANRSKFSIADEDARQNPYPVKAMEVVNSGSEVWYSNGPGLLVIDCASLEICRRLEPYMAPSMVTSVVCSSEGRGEEVVWCLDDKANSLVMYHSTTYQLCARYFCGVPSPLRDMFPVRPLDTEPPAASHTANPKVPEGDSIADVSIMYSEELGTQILIHQESLTDYCSMSSYSSSPPRQAARSPSSLPSSPASSSSVPFSTDCEDSDMLHTPGAASDRSEHDLTPMDGETFSQHLQAVKILAVRDLIWVPRRGGDVIVIGLEKDSGAQRGRVIAVLKARELTPHGVLVDAAVVAKDTVVCTFENENTEWCLAVWRGWGAREFDIFYQSYEELGRLEACTRKRR
Take B1: the “stoichiometry N” value in series [6] was determined as 2.
